Assay results taken from patent publication US20250388623A1, “PEPTIDE INHIBITOR AND USE THEREOF” (CHENGDU BRILLIANT INSPIRATION BIOTHERAPEUTICS CO., LTD, priority 2022, published 2025).
Each block holds one substance with its values, some of them ahead of it.

Tests used:
[1] = tested on: active TGF-β; experiment: Active TGF-β level in lung tissue, bleomycin (BLM) mouse lung fibrosis model; assay type: in vivo; conditions: single intratracheal dose 3 mg/kg on Day 7, lung 24 h later; BLM model group = 100.00
Excerpt: This Example was to evaluate the inhibitory effect of polypeptides on active TGF-β level during the progression of fibrotic disease. In this Example, a mouse lung fibrosis model induced by bleomycin (BLM) was used. The BLM animal model offers advantages, including a close mimicry of the pathological features of the primary disease, ease of use, and good reproducibility. It is the most representative model for studying the mechanisms of fibrosis and is recommended for evaluating drug efficacy.
In this Example, 6 to 8-week-old male C57/6J mice weighing 18-20 g were used as subjects for the study. The experimental animals were randomized into groups, 8 animals in each group, and the expressions of pro-fibrotic factors were detected at the endpoint of the experiment (Day 8) in this model. In this example, an aerosol intratracheal metered dosing applicator (Yuyan, model YAN30012) was utilized for intratracheal administration during the modeling and drug delivery processes. The dosing was performed as follows (An Official American Thoracic Society Workshop Report: Use of Animal Models for the Preclinical Assessment of Potential Therapies for Pulmonary Fibrosis, Am J Respir Cell Mol Biol Vol 56, Iss 5, pp 667-679, May 2017): The experimental animals were anesthetized with aerosolized isoflurane (RWD, lot no. 22041701) using a small animal anesthesia machine (RWD, model R500IE). Animals in the appropriate anesthetic state were positioned supine with heads facing up and bodies tilted on an operating platform (tilted at approximately) 60°, secured by their incisors. The practitioner gently lifted the tongue with tissue forceps in the right hand, pushing it outward and upward to open the animal's lower jaw. Holding the laryngoscope (Yuyan, model SR310-RW) in the left hand, the practitioner slid its anterior leaf-shaped blade along the midline of the tongue into the oral cavity until reaching the glottis, gently pressing the body and root of the tongue upward. The needle of the drug applicator was then inserted through the mouth into the glottis alongside the laryngoscope, and 50 μL of liquid was quickly injected. On the day of modeling (Day 1), the experimental animals were randomly assigned to groups and administered a 0.7 USP/kg dose of bleomycin solution (HanHui Pharmaceutical, Batch No. 20080511) via the tracheal route to induce the model. On Day 7, each peptide-treated group received a single intratracheal dose of 50 μL peptide drug (at a dosage of 3 mg/kg), while the model group was given an equal volume of solvent (saline, Kelong, Batch No. L221062501) as a control. Twenty-four hours after drug administration, the animals were dissected to collect lung tissue, which was ground in liquid nitrogen to extract total protein from the lung tissue. The active TGF-β content in the lung tissue of mice from each group was measured using the TGF-β ELISA kit (BOSTER, catalog number EK0515). The ratio of active TGF-β content between the peptide-treated group and the model group was calculated to evaluate the effect of the peptide on active TGF-β level.

[2] = target: T1, binding of TSP-1 protein to CD36, a TSP-1 receptor protein (Homo sapiens, UniProt P07996); experiment: ELISA: blocking of CD36 binding to TSP-1 protein; conditions: 100 μM polypeptide, 0.25 μg/mL Fc-tagged CD36, blocking of CD36 binding to TSP-1; for inhibition at 100 µM: 3 h, read-out: Blocking rate (Mean, %)
T1 construct: purchased novoprotein (TSP-1); R&D Systems (Fc-tagged CD36) CU45 (TSP-1); 1955-CD-050 (CD36-Fc)
Protocol: ELISA assay was performed to detect the ability of the polypeptides to block the binding of TSP-1 protein to CD36, a TSP-1 receptor protein. TSP-1 protein (novoprotein, Catalog No. CU45) was diluted to 2 μg/mL using 100 mM carbonate buffer and added to sample wells (100 μL/well) of a 96-well ELISA plate (Thermo, Catalog No. 437111), and incubated overnight at 4° C.; after washing the plate twice using 1×PBST wash solution, 200 μL of 1.5% BSA (Sigma, Catalog No. B2064) was added to each well, and incubated at 37° C. for 2 h; after washing the plate 3 times using 1×PBST wash solution, the analytes were added (100 μL/well, 3 replicate wells; for the control group, 0.25 μg/mL of Fc-tagged CD36 protein (R&D Systems, Catalog No. 1955-CD-050); and for the polypeptide-treated groups, a mixture containing Fc-tagged CD36 protein and polypeptide at final concentrations of 0.25 μg/mL and 100 μM, respectively), and incubated at 37° C. for 3 h. After washing the plate 5 times using 1×PBST wash solution, a 1:500 dilution solution of FITC-labeled anti-Fc-tagged antibody (Beyotime, Catalog No. A0556) was added, and incubated for 1 h at 37° C.; after washing the plate 5 times using 1×PBST wash solution, a multifunctional ELISA instrument (TECAN, model: Infinite 200 Pro) was used to detect the intensity of FITC fluorescence signal in each sample well. The ability of the polypeptides to block CD36 binding to TSP-1 protein (Table 2-1) was assessed by calculating the ratio of the fluorescence signal from the polypeptide-treated groups to that of the control group, allowing for the determination of the blocking rate of the polypeptides in inhibiting CD36 binding to TSP-1 protein, i.e., (fluorescence signal of the control group-fluorescence signal of the polypeptide-treated group)/fluorescence signal of the control group×100%. Based on the blocking rate results obtained at the single concentration and on the polypeptide molecule properties, the preferred polypeptide molecules were assayed for concentration dependence (at 0 μM, 0.5 μM, 1 μM, 5 μM, 10 μM, and 100 μM), and IC50 values of the polypeptides for blocking CD36 binding to TSP-1 protein were determined to further assess the abilities of the preferred polypeptide molecules to block the binding of CD36 to TSP-1 (Table 2-2).

[3] = tested on: P-Smad2/3; experiment: P-Smad2/3 content in lung tissue, BLM mouse fibrosis model; assay type: in vivo; conditions: single intratracheal dose 3 mg/kg on Day 7, lung 24 h later; BLM model group = 100.00
Excerpt: This example aimed to evaluate the inhibitory effect of polypeptides on the TGF-β downstream signaling pathway during fibrosis progression. TGF-β intracellular signaling relies on the phosphorylation events of Smad family proteins. The increase in Smad2/3 phosphorylation levels is an important indicator that signal transduction has occurred in the TGF-β signaling pathway.
In this example, 6- to 8-week-old male C57/6J mice weighing 18-20 g were used as subjects for the study. The experimental animals were randomized into groups, eight animals in each group. In this example, intratracheal administration was performed using an aerosol intratracheal metered dosing applicator during both the modeling and drug delivery processes, as described in Example 4. On the day of modeling (Day 1), the experimental animals were randomly assigned to groups and administered a 0.7 USP/kg dose of bleomycin solution (HanHui Pharmaceutical, Batch No. 20080511) via the tracheal route to induce the model. On Day 7, each peptide-treated group received a single intratracheal dose of peptide drug at a dosage of 3 mg/kg, while the BLM model group was given an equal volume of solvent (saline) as a control. Twenty-four hours after drug administration, the animals were dissected, and the lung tissues were collected and frozen in liquid nitrogen for future use. Total protein from the lung tissue was extracted after grinding the tissue in liquid nitrogen, and the total P-Smad2/3 content in the tissue was measured by using P-Smad2/3 ELISA kit (CST, Catalog No. 12001C). The ratio of the P-Smad2/3 content between the peptide-treated group and the model group was calculated to evaluate the effect of the peptide on TGFβ signaling.

T1 sequence (P07996 19-1170): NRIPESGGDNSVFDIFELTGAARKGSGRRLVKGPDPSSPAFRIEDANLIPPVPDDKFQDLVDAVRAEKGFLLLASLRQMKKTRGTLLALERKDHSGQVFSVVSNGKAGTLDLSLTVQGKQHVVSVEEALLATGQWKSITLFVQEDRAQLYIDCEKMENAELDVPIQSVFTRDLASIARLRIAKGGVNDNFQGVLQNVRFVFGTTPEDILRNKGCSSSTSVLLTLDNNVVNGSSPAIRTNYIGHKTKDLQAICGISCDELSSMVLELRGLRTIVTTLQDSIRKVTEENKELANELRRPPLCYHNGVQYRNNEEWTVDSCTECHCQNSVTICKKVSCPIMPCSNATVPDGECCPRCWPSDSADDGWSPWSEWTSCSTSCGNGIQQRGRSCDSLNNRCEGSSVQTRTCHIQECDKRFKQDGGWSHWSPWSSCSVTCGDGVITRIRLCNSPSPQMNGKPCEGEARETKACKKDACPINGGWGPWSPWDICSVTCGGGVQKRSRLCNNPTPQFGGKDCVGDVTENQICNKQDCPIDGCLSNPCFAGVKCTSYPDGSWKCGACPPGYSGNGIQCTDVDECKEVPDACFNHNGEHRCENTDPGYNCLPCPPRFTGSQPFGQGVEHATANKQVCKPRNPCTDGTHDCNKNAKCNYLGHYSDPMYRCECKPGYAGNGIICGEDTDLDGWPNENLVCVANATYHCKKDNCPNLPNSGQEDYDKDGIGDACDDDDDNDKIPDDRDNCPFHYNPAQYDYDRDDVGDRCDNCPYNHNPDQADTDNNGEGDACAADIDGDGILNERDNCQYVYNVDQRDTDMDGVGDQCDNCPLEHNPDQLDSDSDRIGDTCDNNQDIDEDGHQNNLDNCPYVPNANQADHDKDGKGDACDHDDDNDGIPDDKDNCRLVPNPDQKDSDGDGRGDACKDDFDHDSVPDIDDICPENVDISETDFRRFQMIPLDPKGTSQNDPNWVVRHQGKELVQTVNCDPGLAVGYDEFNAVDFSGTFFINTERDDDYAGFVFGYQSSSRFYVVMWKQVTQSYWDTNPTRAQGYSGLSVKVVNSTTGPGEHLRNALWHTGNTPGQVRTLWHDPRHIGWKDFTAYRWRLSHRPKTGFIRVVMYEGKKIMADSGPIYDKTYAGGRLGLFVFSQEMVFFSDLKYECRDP

Substance: Ac-Thr-Gln-Asp-Ser-Glu-Asp-Asn-NH2 (Ac-TQDSEDN-NH2) [SEQ ID NO: 11]
Blocking rate (Mean, %) [2]: 15.19%

Substance: Ac-Gln-Asp-Pro-Glu-Asp-NH2 (Ac-QDPED-NH2) [SEQ ID NO: 01]
Blocking rate (Mean, %) [2]: 17.84%

Substance: Ac-Gln-Asp-Ala-Glu-Asp-NH2 (Ac-QDAED-NH2) [SEQ ID NO: 02]
Blocking rate (Mean, %) [2]: 16.39%

Substance: Ac-TQDAEDNT-NH2 [SEQ ID NO: 15, Ac-Thr-Gln-Asp-Ala-Glu-Asp-Asn-Thr-NH2]
inhibition at 100 µM [2]: 30.6%

Substance: Ac-Thr-Gln-Asp-Pro-Glu-Asp-Asn-Thr-Val-NH2 (Ac-TQDPEDNTV-NH2) [SEQ ID NO: 20]
Blocking rate (Mean, %) [2]: 26.03%

Substance: Ac-Ser-Gln-Asp-Ala-Glu-Asp-Asn-Thr-Val-NH2 (Ac-SQDAEDNTV-NH2) [SEQ ID NO: 18]
Blocking rate (Mean, %) [2]: 18.79%

Substance: Ac-QDAEDNTAS-NH2 [SEQ ID NO: 23, Ac-Gln-Asp-Ala-Glu-Asp-Asn-Thr-Ala-Ser-NH2]
inhibition at 100 µM [2]: 22.8%

Substance: Ac-Thr-Ser-Asp-Ala-Glu-Asp-Asn-NH2 (Ac-TSDAEDN-NH2) [SEQ ID NO: 10]
Blocking rate (Mean, %) [2]: 14.54%

Substance: Ac-Thr-Gln-Asp-Ala-Glu-Asp-Pro-NH2 (Ac-TQDAEDP-NH2) [SEQ ID NO: 13]
Blocking rate (Mean, %) [2]: 16.56%

Substance: Ac-Thr-Asn-Asp-Ala-Glu-Asp-Asn-NH2 (Ac-TNDAEDN-NH2) [SEQ ID NO: 08]
active TGF-β content in lung tissue, ratio to model group, Mean(%) [1]: 80.31% | Blocking rate (Mean, %) [2]: 16.70% | P-Smad2/3 content in lung tissue, ratio to model group, Mean(%) [3]: 83.02%

Substance: Ac-Gln-Asp-Ala-Glu-Asp-Asn-Thr-Ala-NH2 (Ac-QDAEDNTA-NH2) [SEQ ID NO: 16]
Blocking rate (Mean, %) [2]: 24.87%

Substance: Ac-Thr-Asn-Asp-Ala-Glu-Asp-Asn-Thr-Val-NH2 (Ac-TNDAEDNTV-NH2) [SEQ ID NO: 19]
Blocking rate (Mean, %) [2]: 16.86%

Substance: Ac-Thr-Gln-Asp-Pro-Glu-Asp-NH2 (Ac-TQDPED-NH2) [SEQ ID NO: 03]
Blocking rate (Mean, %) [2]: 16.02%

Substance: Ac-Thr-Gln-Asp-Ser-Glu-Asp-Asn-Thr-Val-NH2 (Ac-TQDSEDNTV-NH2) [SEQ ID NO: 21]
Blocking rate (Mean, %) [2]: 15.63%

The next lines start with results.

Blocking rate (Mean, %) [2]: 28.65%
Substance: cyclo[Thr-Gln-Asp-Pro-Glu-Asp-Asn] (TQDPEDN; cyclic peptide; MISC_FEATURE - head-to-tail backbone cyclization) [SEQ ID NO: 41]
active TGF-β content in lung tissue, ratio to model group, Mean(%) [1]: 74.12% | P-Smad2/3 content in lung tissue, ratio to model group, Mean(%) [3]: 81.44%

Blocking rate (Mean, %) [2]: 25.05%
Substance: Ac-Thr-Glu-Asp-Ala-Glu-Asp-Asn-Thr-Val-Ser-Phe-NH2 (Ac-TEDAEDNTVSF-NH2) [SEQ ID NO: 29]

Blocking rate (Mean, %) [2]: 21.71%
Substance: Ac-Ser-Gln-Asp-Ala-Glu-Asp-Asn-Thr-Val-Ser-Phe-NH2 (Ac-SQDAEDNTVSF-NH2) [SEQ ID NO: 28]

Blocking rate (Mean, %) [2]: 21.58%
Substance: Ac-Thr-Gln-Asp-Ala-Glu-Asp-Asn-Thr-Ala-Ser-His-Leu-NH2 (Ac-TQDAEDNTASHL-NH2) [SEQ ID NO: 35]

Blocking rate (Mean, %) [2]: 25.53%
Substance: Ac-Thr-Gln-Asp-Ala-Glu-Asp-Asn-Thr-Val-Ser-Phe-NH2 (Ac-TQDAEDNTVSF-NH2) [SEQ ID NO: 27]
active TGF-β content in lung tissue, ratio to model group, Mean(%) [1]: 89.89% | P-Smad2/3 content in lung tissue, ratio to model group, Mean(%) [3]: 88.69%

Blocking rate (Mean, %) [2]: 22.45%
Substance: Ac-Thr-Gln-Asp-Pro-Glu-Asp-Asn-Thr-Val-Ser-Phe-NH2 (Ac-TQDPEDNTVSF-NH2) [SEQ ID NO: 30]

Blocking rate (Mean, %) [2]: 18.44%
Substance: Ac-Thr-Gln-Asp-Ala-Glu-Asp-Asn-Thr-Ala-Ser-Phe-NH2 (Ac-TQDAEDNTASF-NH2) [SEQ ID NO: 31]
active TGF-β content in lung tissue, ratio to model group, Mean(%) [1]: 83.22% | P-Smad2/3 content in lung tissue, ratio to model group, Mean(%) [3]: 90.02%

inhibition at 100 µM [2]: 30.2%
Substance: Ac-TQDAEDNTQD-NH2 [SEQ ID NO: 49, Ac-Thr-Gln-Asp-Ala-Glu-Asp-Asn-Thr-Gln-Asp-NH2]
active TGF-β content in lung tissue, ratio to model group, Mean(%) [1]: 82.64% | P-Smad2/3 content in lung tissue, ratio to model group, Mean(%) [3]: 91.98%

Blocking rate (Mean, %) [2]: 22.29%
Substance: Ac-Thr-Gln-Asp-Pro-Glu-Asp-Asn-Thr-Val-Ser-Phe-Leu-Gln-NH2 (Ac-TQDPEDNTVSFLQ-NH2) [SEQ ID NO: 39]

Blocking rate (Mean, %) [2]: 20.44%
Substance: Ac-Thr-Gln-Asp-Ala-Glu-Asp-Asn-Thr-Ala-Ser-Trp-NH2 (Ac-TQDAEDNTASW-NH2) [SEQ ID NO: 34]

Blocking rate (Mean, %) [2]: 21.45%
Substance: Ac-Thr-Gln-Asp-Ala-Glu-Asp-Asn-Thr-Ala-Ser-Tyr-NH2 (Ac-TQDAEDNTASY-NH2) [SEQ ID NO: 32]

Blocking rate (Mean, %) [2]: 22.41%
Substance: Ac-Ser-Gln-Asp-Ala-Glu-Asp-Asn-Thr-Val-Ser-Phe-Leu-Gln-NH2 (Ac-SQDAEDNTVSFLQ-NH2) [SEQ ID NO: 37]

Blocking rate (Mean, %) [2]: 20.22%
Substance: Ac-Thr-Ser-Asp-Ala-Glu-Asp-Asn-Thr-Val-Ser-Phe-Leu-Gln-NH2 (Ac-TSDAEDNTVSFLQ-NH2) [SEQ ID NO: 38]
